According to article PMC10229228, “Structural insights into a regulatory mechanism of FIR RRM1–FUSE interaction”:

Legend:
Conditions in all cases: protein: recombinant; tags: N-terminal His6, removed by TEV; single strand
FIR RRM1-2 Y115F [1] = target: T1, FIR RRM1-2 Y115F (UniProt Q9UHX1-2 101-293, Y115F); assay: X-ray crystallography (1.65 A); ITC: 25 mM HEPES pH 7.5, 150 mM NaCl, 0.5 mM TCEP, 20 C; protein 160-240 uM titrated into ssDNA 40-50 uM
FIR RRM1-2 WT [2] = target: T2, FIR RRM1-2 WT (UniProt Q9UHX1-2 101-293); assay: X-ray crystallography (2.05 A); ethylene glycol contacts the bound guanine; ITC: 25 mM HEPES pH 7.5, 150 mM NaCl, 0.5 mM TCEP, 20 C; protein 160-240 uM titrated into ssDNA 40-50 uM
T2 sequence (Q9UHX1 118-310): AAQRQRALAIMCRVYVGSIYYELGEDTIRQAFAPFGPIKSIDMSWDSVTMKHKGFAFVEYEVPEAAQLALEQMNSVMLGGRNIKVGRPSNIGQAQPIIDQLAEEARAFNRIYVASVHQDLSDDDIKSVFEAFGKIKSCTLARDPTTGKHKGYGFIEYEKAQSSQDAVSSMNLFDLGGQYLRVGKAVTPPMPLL

FIR RRM1-2 WT [3] = target: T2, FIR RRM1-2 WT; assay: ITC; ITC: 25 mM HEPES pH 7.5, 150 mM NaCl, 0.5 mM TCEP, 20 C; protein 160-240 uM titrated into ssDNA 40-50 uM
FIR RRM1-2 Y115F [4] = target: T1, FIR RRM1-2 Y115F; assay: as above

T1 sequence (Q9UHX1 118-310 Y132F): as the sequence (Q9UHX1 118-310) above, with Y15F counted along it

Which results are given for TTTTTATTTTGTGTT (ssDNA) [FUSE 15-nt]?
binding result (FIR RRM1-2 Y115F [1]): binds; binding result (FIR RRM1-2 WT [2]): binds

Which Kd (FIR RRM1-2 WT [3]) does the source give for TTATTTT (ssDNA) here?
Its Kd is 11 µM.

For TAATTTT (ssDNA), which Kd (FIR RRM1-2 Y115F [4]) is on record?
Its Kd is ~6 µM.

TTGTTTT (ssDNA) was tested. Which Kd (FIR RRM1-2 WT [3]) did it give?
Its Kd is 2 µM.
